In paper PMC8667150 one finds localisation_or_trafficking and expression_or_secretion data, which are given here for one protein.

The nature of data set [1]: immunofluorescence, anti-myc and anti-calnexin, AR42J cells. The conditions noted are these: glycan lost; control: wild type.
A short description of data set [2]: Western blot of transfected AR42J cells. As to conditions: glycan lost; control: wild type.

B1: somatostatin receptor type 2 (SSTR2): N9Q (protein)
parent chain: MELTSEQFNGSQVWIPSPFDLNGSLGPSNGSNQTEPYYDMTSNAVLTFIYFVVCVVGLCGNTLVIYVILRYAKMKTITNIYILNLAIADELFMLGLPFLAMQVALVHWPFGKAICRVVMTVDGINQFTSIFCLTVMSIDRYLAVVHPIKSAKWRRPRTAKMINVAVWGVSLLVILPIMIYAGLRSNQWGRSSCTINWPGESGAWYTGFIIYAFILGFLVPLTIICLCYLFIIIKVKSSGIRVGSSKRKKSEKKVTRMVSIVVAVFIFCWLPFYIFNVSSVSVAISPTPALKGMFDFVVILTYANSCANPILYAFLSDNFKKSFQNVLCLVKVSGAEDGERSDSKQDKSRLNETTETQRTLLNGDLQTSI
With B1, the localisation_or_trafficking entry in data set [1] is listed as “changes”. Further, the expression_or_secretion entry in data set [2] is “decreases”.
